US20100183625A1, “Treatment of Mucositis with Kallikrein Inhibitors” (Dyax Corp., priority 2009, published 2010)
Positions count from the first letter of the chain named.

B1: M202-A12 (antibody, V domains shown)
VL: QDIQMTQSPSTLSASVGDRVTITCRASQSISSWLAWYQQKPGKAPNLLIYKASTLESGVPSRFSGSGSGTEFTLTISSLQPDDFATYYCQQYNTYWTFGQGTKVEIK
VH: EVQLLESGGGLVQPGGSLRLSCAASGFTFSHYIMMWVRQAPGKGLEWVSGIYSSGGITVYADSVKGRFTISRDNSKNTLYLQMNSLRAEDTAVYYCAYQRTGVPRRDSFNIWGQGTMVTVSSASTKGPSVFPLAPSSKS
B2: M210-C12 (antibody, V domains shown)
VL: QDIQMTQSPGTLSLSPGERATLSCRTSQFVNSNYLAWYQQTPGQAPRLLIYGASSRATGIPDRFSGTGYGTDFTLTISRLEPEDYGTYYCQQSSRTPWTFGQGTRVEIK
VH: EVQLLESGGGLVQPGGSLRLSCAASGFTFSHYLMTWVRQAPGKGLEWVSYISPSGGHTIYADSVKGRFTISRDNSKNTLYLQMNSLRAEDTAVYYCARVAQGIAARSRTSSVDQWGQGTLVTVSSASTKGPSVFPLAPSSKS
B3: M209-F04 (antibody, V domains shown)
VL: B2 VL
VH: B2 VH with Q101R, S111Y, V112L
B4: M206-F01 (antibody, V domains shown)
VL: B2 VL
VH: B2 VH with H31G, L33M, T35V, Y50R, H57P, Q101R, S111Y, V112F, Q114Y
B5: X67-F10: single point mutation of M142-H08 (P2); HV-CDR3 GGLLLWTRELKSNYFDY (antibody, V domains shown)
VL: QDIQMTQSPSSLSAFVGDRVTITCRASQPIDNYLNWYHQKPGKAPKLLIYAASRLQSGVPSRLSGSGFGTDFTLTISSLQPEDFGNYYCQQSYTVPYTFGGGTKVEIR
VH: EVQLLESGGGLVQPGGSLRLSCAASGFTFSAYSMIWVRQAPGKGLEWVSYIRPSGGRTTYADSVKGRFTISRDNSKNTLYLQMNSLRAEDTAVYYCARGGLLLWTRELKSNYFDYWGQGTLVTVSSASTKGPSVFPLAPSSKS
B6: X66-F09: single point mutation of M142-H08 (P1); HV-CDR3 GGLLLWFWELKSNYFDY (antibody, V domains shown)
VL: B5 VL
VH: B5 VH with T105F, R106W
B7: X66-E09: single point mutation of M142-H08 (P1); HV-CDR3 GGLLLWFAELKSNYFDY (antibody, V domains shown)
VL: B5 VL
VH: B5 VH with T105F, R106A
B8: X67-H01: single point mutation of M142-H08 (P2); HV-CDR3 GGLLLWWRELKSNYFDY (antibody, V domains shown)
VL: B5 VL
VH: B5 VH with T105W
B9: X66-C11: single point mutation of M142-H08 (P1); HV-CDR3 GGLLLWFHELKSNYFDY (antibody, V domains shown)
VL: B5 VL
VH: B5 VH with T105F, R106H
B10: X66-H04: single point mutation of M142-H08 (P1); HV-CDR3 GGLLLWFFELKSNYFDY (antibody, V domains shown)
VL: B5 VL
VH: B5 VH with T105F, R106F
B11: X66-C02: single point mutation of M142-H08 (P1); HV-CDR3 GGLLLWFVELKSNYFDY (antibody, V domains shown)
VL: B5 VL
VH: B5 VH with T105F, R106V
B12: X66-H02: single point mutation of M142-H08 (P1); HV-CDR3 GGLLLWFGELKSNYFDY (antibody, V domains shown)
VL: B5 VL
VH: B5 VH with T105F, R106G
B13: X66-H11: single point mutation of M142-H08 (P1); HV-CDR3 GGLLLWFTELKSNYFDY (antibody, V domains shown)
VL: B5 VL
VH: B5 VH with T105F, R106T
B14: X66-D03: single point mutation of M142-H08 (P1); HV-CDR3 GGLLLWFEELKSNYFDY (antibody, V domains shown)
VL: B5 VL
VH: B5 VH with T105F, R106E
B15: X66-F01: single point mutation of M142-H08 (P1); HV-CDR3 GGLLLWFSELKSNYFDY (antibody, V domains shown)
VL: B5 VL
VH: B5 VH with T105F, R106S
B16: X66-C03: single point mutation of M142-H08 (P1); HV-CDR3 GGLLLWFLELKSNYFDY (antibody, V domains shown)
VL: B5 VL
VH: B5 VH with T105F, R106L
B17: X66-B05: single point mutation of M142-H08 (P1); HV-CDR3 GGLLLWFCELKSNYFDY (antibody, V domains shown)
VL: B5 VL
VH: B5 VH with T105F, R106C
B18: X66-E04: single point mutation of M142-H08 (P1); HV-CDR3 GGLLLWFQELKSNYFDY (antibody, V domains shown)
VL: B5 VL
VH: B5 VH with T105F, R106Q
B19: X66-G05: single point mutation of M142-H08 (P1); HV-CDR3 GGLLLWFMELKSNYFDY (antibody, V domains shown)
VL: B5 VL
VH: B5 VH with T105F, R106M
B20: X66-A07: single point mutation of M142-H08 (P1); HV-CDR3 GGLLLWFKELKSNYFDY (antibody, V domains shown)
VL: B5 VL
VH: B5 VH with T105F, R106K
B21: X66-F10: single point mutation of M142-H08 (P1); HV-CDR3 GGLLLWFPELKSNYFDY (antibody, V domains shown)
VL: B5 VL
VH: B5 VH with T105F, R106P
B22: X67-F08: single point mutation of M142-H08 (P2); HV-CDR3 GGLLLWYRELKSNYFDY (antibody, V domains shown)
VL: B5 VL
VH: B5 VH with T105Y

biological target: T1, human plasma kallikrein (human pKal) (Homo sapiens, UniProt P03952); test: Ki,app against human pKal by steady state enzyme kinetics (in vitro protease cleavage assay, Pro-Phe-Arg-aminomethylcoumarin substrate); format: biochemical; details: human pKal; Table 12, antibodies based on M162-A04; read-out: human pKal Ki, app
T1 construct: two disulfide linked polypeptides; a heavy chain of approximately 52 kDa and a catalytic domain of approximately 34 kDa; host or cells: human plasma
T1 sequence (P03952 391-638 limits assumed): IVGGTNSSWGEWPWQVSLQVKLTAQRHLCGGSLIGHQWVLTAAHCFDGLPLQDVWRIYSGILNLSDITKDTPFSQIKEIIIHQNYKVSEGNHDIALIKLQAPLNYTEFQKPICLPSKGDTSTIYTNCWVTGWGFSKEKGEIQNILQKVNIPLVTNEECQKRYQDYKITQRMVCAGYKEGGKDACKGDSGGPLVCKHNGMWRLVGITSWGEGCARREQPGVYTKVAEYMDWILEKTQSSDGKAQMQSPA
T1 sequence (P03952 20-390 partner limits assumed): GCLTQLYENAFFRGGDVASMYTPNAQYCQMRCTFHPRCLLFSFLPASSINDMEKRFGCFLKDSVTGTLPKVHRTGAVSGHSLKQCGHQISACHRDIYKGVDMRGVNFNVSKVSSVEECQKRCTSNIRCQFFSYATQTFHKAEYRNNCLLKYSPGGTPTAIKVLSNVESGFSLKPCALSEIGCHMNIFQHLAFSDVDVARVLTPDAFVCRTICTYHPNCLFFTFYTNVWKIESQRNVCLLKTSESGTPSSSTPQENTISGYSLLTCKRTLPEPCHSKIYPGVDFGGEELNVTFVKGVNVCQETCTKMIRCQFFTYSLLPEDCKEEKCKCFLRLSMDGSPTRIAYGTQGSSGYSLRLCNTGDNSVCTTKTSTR
Source text: The inhibition constant (Ki) provides a measure of inhibitor potency; it is the concentration of inhibitor required to reduce enzyme activity by half and is not dependent on enzyme or substrate concentrations. The apparent Ki (Ki,app) is obtained at different substrate concentrations by measuring the inhibitory effect of different concentrations of inhibitor (e.g., inhibitory binding protein) on the extent of the reaction (e.g., enzyme activity); fitting the change in pseudo-first order rate constant as a function of inhibitor concentration to the Morrison equation (Equation 1) yields an estimate of the apparent Ki value. The Ki is obtained from the y-intercept extracted from a linear regression analysis of a plot of Ki,app versus substrate concentration.
Where v=measured velocity; v0=velocity in the absence of inhibitor; Ki,app=apparent inhibition constant; I=total inhibitor concentration; and E=total enzyme concentration.
The sequence of human plasma kallikrein that was used in selections and subsequent screening of binding proteins is shown below (accession number NP_000883.2). The human plasma kallikrein (86 kDa) that was used was purified from human plasma and activated with factor XIIa by a commercial vendor. Factor XIIa activates prekallikrein by cleaving the polypeptide sequence at a single site (between Arg371-Ile372, cleavage site marked by “/” in the sequence below) to generate active plasma kallikrein, which then consists of two disulfide linked polypeptides; a heavy chain of approximately 52 kDa and a catalytic domain of approximately 34 kDa [Colman and Schmaier, (1997) “Contact System: A Vascular Biology Modulator With Anticoagulant, Profibrinolytic, Antiadhesive, and Proinflammatory Attributes” Blood, 90, 3819-3843]
(§1) These antibodies were produced as Fab fragments in small scale (˜20 μg) and tested for inhibition against human pKal in an in vitro protease cleavage assay using Pro-Phe-Arg-aminomethylcoumarin as the synthetic peptide substrate. […] Five antibodies were then expressed in 293T cells and purified by protein A sepharose chromatography. The antibodies were analyzed by SDS-PAGE to determine which of the inhibitory mutants are not cleaved by the host cell protease(s) (data not shown).

Molecule	Ki [nM]
B1	0.2

same assay, conditions: human pKal; Table 13, antibodies based on X63-G06; read-out: human pKal Ki, app

Molecule	Ki [nM]
B2	0.16
B3	0.09
B4	0.2

biological target: T2, pKal (Homo sapiens, UniProt P03952); test: Fab fragments (small scale) tested for inhibition against human pKal in an in vitro protease cleavage assay; format: biochemical; details: Table 9
T2 construct: two disulfide linked polypeptides; a heavy chain of approximately 52 kDa and a catalytic domain of approximately 34 kDa; host or cells: human plasma
T2 sequence (P03952 391-638 limits assumed): as the sequence (P03952 391-638 limits assumed) above
T2 sequence (P03952 20-390 partner limits assumed): as the sequence (P03952 20-390 partner limits assumed) above
Experimental: as §1, with “By DNA sequencing, we recovered 61 of the possible 80 antibodies (Table 9). These” for “These”

Molecule	Inhibit as a Fab?
B5	Yes
B6	No
B7	No
B8	Yes
B9	No
B10	No
B11	No
B12	No
B13	No
B14	No
B15	No
B16	No
B17	No
B18	No
B19	No
B20	No
B21	No
B22	Yes

biological target: T2, pKal; test: Inhibition screening with 10 nM antibody (as Fab fragments); format: biochemical; details: Table 12, antibodies based on M162-A04
Source text: The 82 antibodies that were discovered based on improvements in M162-A04 due to modifications in either the CDR1/2 and CDR3 region are shown in Table 12.
The 62 antibodies that were discovered based on improvements in X63-G06 due to modifications in either the CDR1/2 and CDR3 region are shown in Table 13.

Molecule	% inhibition at 10 nM [%]
B1	97.5

same assay, conditions: Table 13, antibodies based on X63-G06

Molecule	% inhibition at 10 nM [%]
B2	95.6
B3	97.6
B4	92.6
